Measured values published in paper PMC8365315 (EBioMedicine, 2021).

Biological target: exportin 4 (XPO4) (UniProt Q9C0E2 1-1151)
Test: SPR

Chain of exportin 4 (XPO4) (Q9C0E2 whole entry): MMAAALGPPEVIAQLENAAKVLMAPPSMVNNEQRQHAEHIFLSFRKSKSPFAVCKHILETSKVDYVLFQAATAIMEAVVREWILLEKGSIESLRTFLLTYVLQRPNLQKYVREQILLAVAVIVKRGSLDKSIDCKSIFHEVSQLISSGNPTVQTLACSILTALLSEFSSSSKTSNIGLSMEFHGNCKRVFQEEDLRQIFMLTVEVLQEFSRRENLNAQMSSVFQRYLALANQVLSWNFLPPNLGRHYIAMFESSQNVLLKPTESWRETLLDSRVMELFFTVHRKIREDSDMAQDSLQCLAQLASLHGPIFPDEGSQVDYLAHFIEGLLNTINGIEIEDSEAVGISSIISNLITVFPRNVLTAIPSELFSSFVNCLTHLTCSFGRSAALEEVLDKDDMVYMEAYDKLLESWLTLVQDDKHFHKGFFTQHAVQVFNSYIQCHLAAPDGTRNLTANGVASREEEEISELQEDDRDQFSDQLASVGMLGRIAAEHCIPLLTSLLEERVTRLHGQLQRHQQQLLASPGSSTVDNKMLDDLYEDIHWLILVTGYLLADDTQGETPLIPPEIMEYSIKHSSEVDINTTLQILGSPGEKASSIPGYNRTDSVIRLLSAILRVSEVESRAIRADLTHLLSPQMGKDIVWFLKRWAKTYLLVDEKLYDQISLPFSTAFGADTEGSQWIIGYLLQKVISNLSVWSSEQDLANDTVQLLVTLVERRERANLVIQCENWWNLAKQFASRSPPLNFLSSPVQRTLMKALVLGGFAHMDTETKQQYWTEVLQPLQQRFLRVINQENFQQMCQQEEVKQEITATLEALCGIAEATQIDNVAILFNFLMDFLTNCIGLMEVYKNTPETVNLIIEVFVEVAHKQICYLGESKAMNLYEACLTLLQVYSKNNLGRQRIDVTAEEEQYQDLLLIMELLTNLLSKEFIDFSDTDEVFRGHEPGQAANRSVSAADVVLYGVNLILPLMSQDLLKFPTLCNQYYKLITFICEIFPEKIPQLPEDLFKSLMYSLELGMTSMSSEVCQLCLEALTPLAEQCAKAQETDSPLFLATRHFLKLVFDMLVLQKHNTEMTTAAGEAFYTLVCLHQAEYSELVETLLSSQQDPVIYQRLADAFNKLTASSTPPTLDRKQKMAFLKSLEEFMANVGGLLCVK

B1: SMAD3 (natural protein, UniProt P84022 1-425, looked up)
chain: MSSILPFTPPIVKRLLGWKKGEQNGQEEKWCEKAVKSLVKKLKKTGQLDELEKAITTQNVNTKCITIPRSLDGRLQVSHRKGLPHVIYCRLWRWPDLHSHHELRAMELCEFAFNMKKDEVCVNPYHYQRVETPVLPPVLVPRHTEIPAEFPPLDDYSHSIPENTNFPAGIEPQSNIPETPPPGYLSEDGETSDHQMNHSMDAGSPNLSPNPMSPAHNNLDLQPVTYCEPAFWCSISYYELNQRVGETFHASQPSMTVDGFTDPSNSERFCLGLLSNVNRNAAVELTRRHIGRGVRLYYIGGEVFAECLSDSAIFVQSPNCNQRYGWHPATVCKIPPGCNLKIFNNQEFAALLAQSVNQGFEAVYQLTRMCTIRMSFVKGWGAEYRRQTVTSTPCWIELHLNGPLQWLDKVLTQMGSPSIRCSSVS
  Kd: 4.88 nM
